In US20250339531A1, “DUX4 POLYPEPTIDES AND NUCLEIC ACIDS FOR TREATING INFLAMMATORY AND AUTOIMMUNE CONDITIONS” (Fred Hutchinson Cancer Center, priority 2021, published 2025):

How the values were obtained:
[1] = target: Tubulin alpha-4A chain (Homo sapiens) (UniProt P68366); experiment: anti-FLAG co-IP LC-MS, exp 3, +Dox
[2] = target: 60 kDa heat shock protein, mitochondrial (Homo sapiens) (UniProt P10809); experiment: anti-FLAG co-IP LC-MS, exp 3, +IFNg +Dox
[3] = target: 60S ribosomal protein L11 (Homo sapiens) (UniProt P62913); experiment: anti-FLAG co-IP LC-MS, exp 3, +IFNg +Dox
[4] = target: 60S ribosomal protein L13 (Homo sapiens) (UniProt P26373); experiment: anti-FLAG co-IP LC-MS, exp 3, +IFNg +Dox
[5] = target: 60S ribosomal protein L18 (Fragment) (Homo sapiens) (UniProt Q07020); experiment: anti-FLAG co-IP LC-MS, exp 3, +IFNg +Dox
[6] = target: 60S ribosomal protein L19 (Homo sapiens) (UniProt P84098); experiment: anti-FLAG co-IP LC-MS, exp 3, +IFNg +Dox
[7] = target: 60S ribosomal protein L3 (Homo sapiens) (UniProt P39023); experiment: anti-FLAG co-IP LC-MS, exp 3, +IFNg +Dox
[8] = target: 60S ribosomal protein L4 (Homo sapiens) (UniProt P36578); experiment: anti-FLAG co-IP LC-MS, exp 3, +IFNg +Dox
[9] = target: 60S ribosomal protein L7a (Homo sapiens) (UniProt P62424); experiment: anti-FLAG co-IP LC-MS, exp 3, +IFNg +Dox
[10] = target: ADP/ATP translocase 2 (Homo sapiens) (UniProt P05141); experiment: anti-FLAG co-IP LC-MS, exp 3, +IFNg +Dox
[11] = target: Alpha-actinin-4 (Homo sapiens) (UniProt O43707); experiment: anti-FLAG co-IP LC-MS, exp 3, +IFNg +Dox
[12] = target: Cytoskeleton-associated protein 4 (Homo sapiens) (UniProt Q07065); experiment: anti-FLAG co-IP LC-MS, exp 3, +IFNg +Dox
[13] = target: Dolichyl-diphosphooligosaccharide--protein glycosyltransferase subunit 1 (Homo sapiens) (UniProt P04843); experiment: anti-FLAG co-IP LC-MS, exp 3, +IFNg +Dox
[14] = target: Elongation factor 1-alpha 1 (Homo sapiens) (UniProt P68104); experiment: anti-FLAG co-IP LC-MS, exp 3, +IFNg +Dox
[15] = target: Elongation factor 1-gamma (Homo sapiens) (UniProt P26641); experiment: anti-FLAG co-IP LC-MS, exp 3, +IFNg +Dox
[16] = target: Fibronectin (Homo sapiens) (UniProt P02751); experiment: anti-FLAG co-IP LC-MS, exp 3, +IFNg +Dox
Filamin-C (Homo sapiens) = Filamin-C (Homo sapiens) (UniProt Q14315); experiment: anti-FLAG co-IP LC-MS, exp 3, +IFNg +Dox
[17] = target: Heat shock 70 kDa protein 1B (Homo sapiens) (UniProt P0DMV9); experiment: anti-FLAG co-IP LC-MS, exp 3, +IFNg +Dox
[18] = target: Heat shock cognate 71 kDa protein (Homo sapiens) (UniProt P11142); experiment: anti-FLAG co-IP LC-MS, exp 3, +IFNg +Dox
[19] = target: Junctional sarcoplasmic reticulum protein 1 (Homo sapiens) (UniProt Q96MG2); experiment: anti-FLAG co-IP LC-MS, exp 3, +IFNg +Dox
[20] = target: Keratin, type II cytoskeletal 71 (Homo sapiens) (UniProt Q3SY84); experiment: anti-FLAG co-IP LC-MS, exp 3, +IFNg +Dox
[21] = target: Nucleosome assembly protein 1-like 1 (Homo sapiens) (UniProt P55209); experiment: anti-FLAG co-IP LC-MS, exp 3, +IFNg +Dox
[22] = target: Plasminogen activator inhibitor 1 RNA-binding protein (Homo sapiens) (UniProt Q8NC51); experiment: anti-FLAG co-IP LC-MS, exp 3, +IFNg +Dox
[23] = target: Polypyrimidine tract-binding protein 1 (Homo sapiens) (UniProt P26599); experiment: anti-FLAG co-IP LC-MS, exp 3, +IFNg +Dox
[24] = target: Probable ATP-dependent RNA helicase DDX6 (Homo sapiens) (UniProt P26196); experiment: anti-FLAG co-IP LC-MS, exp 3, +IFNg +Dox
[25] = target: Procollagen-lysine, 2-oxoglutarate 5-dioxygenase 3 (Homo sapiens) (UniProt O60568); experiment: anti-FLAG co-IP LC-MS, exp 3, +IFNg +Dox
[26] = target: Ras GTPase-activating protein-binding protein 1 (Homo sapiens) (UniProt Q13283); experiment: anti-FLAG co-IP LC-MS, exp 3, +IFNg +Dox
[27] = target: S-adenosylhomocysteine hydrolase-like protein 1 (Homo sapiens) (UniProt O43865); experiment: anti-FLAG co-IP LC-MS, exp 3, +IFNg +Dox
Serpin B3 (Homo sapiens) = Serpin B3 (Homo sapiens) (UniProt P29508); experiment: anti-FLAG co-IP LC-MS, exp 3, +IFNg +Dox
[28] = target: Sodium/potassium-transporting ATPase subunit alpha-1 (Homo sapiens) (UniProt P05023); experiment: anti-FLAG co-IP LC-MS, exp 3, +IFNg +Dox
[29] = target: Splicing factor 3B subunit 3 (Homo sapiens) (UniProt Q15393); experiment: anti-FLAG co-IP LC-MS, exp 3, +IFNg +Dox
[30] = target: Tubulin alpha-4A chain (Homo sapiens) (UniProt P68366); experiment: anti-FLAG co-IP LC-MS, exp 3, +IFNg +Dox
[31] = target: Tubulin beta-2A chain (Homo sapiens) (UniProt Q13885); experiment: anti-FLAG co-IP LC-MS, exp 3, +IFNg +Dox
[32] = target: Ubiquitin carboxyl-terminal hydrolase 7 (Homo sapiens) (UniProt Q93009); experiment: anti-FLAG co-IP LC-MS, exp 3, +IFNg +Dox
[33] = target: X-ray repair cross-complementing protein 5 (Homo sapiens) (UniProt P13010); experiment: anti-FLAG co-IP LC-MS, exp 3, +IFNg +Dox
[34] = target: Y-box-binding protein 3 (Homo sapiens) (UniProt P16989); experiment: anti-FLAG co-IP LC-MS, exp 3, +IFNg +Dox
Y-box-binding protein 3 (Homo sapiens), sequence (P16989 2-372 limits assumed): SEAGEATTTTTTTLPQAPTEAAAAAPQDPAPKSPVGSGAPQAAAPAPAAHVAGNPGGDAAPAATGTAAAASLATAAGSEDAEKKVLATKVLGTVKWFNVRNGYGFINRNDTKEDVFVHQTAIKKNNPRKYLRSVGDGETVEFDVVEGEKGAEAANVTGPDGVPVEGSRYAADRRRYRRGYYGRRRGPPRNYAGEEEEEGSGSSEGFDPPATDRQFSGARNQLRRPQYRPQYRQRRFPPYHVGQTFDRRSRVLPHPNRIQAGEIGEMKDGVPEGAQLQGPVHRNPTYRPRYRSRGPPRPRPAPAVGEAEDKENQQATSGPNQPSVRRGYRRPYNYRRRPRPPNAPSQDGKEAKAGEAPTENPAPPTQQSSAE

Tubulin alpha-4A chain (Homo sapiens), sequence (P68366 whole entry): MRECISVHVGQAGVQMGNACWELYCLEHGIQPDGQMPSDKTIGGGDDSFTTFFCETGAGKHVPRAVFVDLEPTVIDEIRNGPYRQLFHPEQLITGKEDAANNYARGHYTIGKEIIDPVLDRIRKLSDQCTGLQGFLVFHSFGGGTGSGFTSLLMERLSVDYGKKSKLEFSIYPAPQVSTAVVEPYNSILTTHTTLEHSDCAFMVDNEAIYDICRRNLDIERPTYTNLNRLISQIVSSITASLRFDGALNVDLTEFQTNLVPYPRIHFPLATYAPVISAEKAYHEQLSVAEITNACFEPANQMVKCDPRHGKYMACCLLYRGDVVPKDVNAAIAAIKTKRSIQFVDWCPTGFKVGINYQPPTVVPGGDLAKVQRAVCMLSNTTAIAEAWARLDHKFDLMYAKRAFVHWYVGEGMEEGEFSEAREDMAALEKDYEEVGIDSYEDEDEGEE
Ubiquitin carboxyl-terminal hydrolase 7 (Homo sapiens), sequence (Q93009 whole entry): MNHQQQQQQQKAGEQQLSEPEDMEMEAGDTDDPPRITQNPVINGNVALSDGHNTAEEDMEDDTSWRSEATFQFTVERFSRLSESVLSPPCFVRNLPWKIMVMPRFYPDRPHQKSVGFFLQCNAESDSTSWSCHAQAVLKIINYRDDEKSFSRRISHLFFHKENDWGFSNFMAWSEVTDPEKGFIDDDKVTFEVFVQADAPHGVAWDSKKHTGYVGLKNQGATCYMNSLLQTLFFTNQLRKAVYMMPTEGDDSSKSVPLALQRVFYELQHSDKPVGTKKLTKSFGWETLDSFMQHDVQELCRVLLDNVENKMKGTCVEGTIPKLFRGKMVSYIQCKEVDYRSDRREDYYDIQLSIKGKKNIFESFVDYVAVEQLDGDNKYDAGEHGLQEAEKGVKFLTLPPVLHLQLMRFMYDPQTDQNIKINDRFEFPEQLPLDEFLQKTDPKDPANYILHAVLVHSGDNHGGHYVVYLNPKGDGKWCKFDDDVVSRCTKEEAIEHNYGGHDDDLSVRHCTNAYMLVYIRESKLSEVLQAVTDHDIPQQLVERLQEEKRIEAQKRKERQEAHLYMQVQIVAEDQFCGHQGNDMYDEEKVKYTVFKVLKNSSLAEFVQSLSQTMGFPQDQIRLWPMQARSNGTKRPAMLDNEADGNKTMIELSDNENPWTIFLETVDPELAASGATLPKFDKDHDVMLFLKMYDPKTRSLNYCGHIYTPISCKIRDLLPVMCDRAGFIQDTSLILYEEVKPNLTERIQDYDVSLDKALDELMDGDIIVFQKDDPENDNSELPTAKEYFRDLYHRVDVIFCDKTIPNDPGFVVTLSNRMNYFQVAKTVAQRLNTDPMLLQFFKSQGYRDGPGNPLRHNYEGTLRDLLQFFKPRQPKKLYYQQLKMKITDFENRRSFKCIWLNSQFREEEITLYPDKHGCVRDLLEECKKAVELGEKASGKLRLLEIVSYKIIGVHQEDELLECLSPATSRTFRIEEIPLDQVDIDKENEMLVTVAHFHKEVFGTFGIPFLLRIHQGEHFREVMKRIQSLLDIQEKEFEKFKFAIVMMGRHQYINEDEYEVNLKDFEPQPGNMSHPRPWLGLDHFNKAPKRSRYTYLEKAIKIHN
60 kDa heat shock protein, mitochondrial (Homo sapiens), sequence (P10809 27-573 limits assumed): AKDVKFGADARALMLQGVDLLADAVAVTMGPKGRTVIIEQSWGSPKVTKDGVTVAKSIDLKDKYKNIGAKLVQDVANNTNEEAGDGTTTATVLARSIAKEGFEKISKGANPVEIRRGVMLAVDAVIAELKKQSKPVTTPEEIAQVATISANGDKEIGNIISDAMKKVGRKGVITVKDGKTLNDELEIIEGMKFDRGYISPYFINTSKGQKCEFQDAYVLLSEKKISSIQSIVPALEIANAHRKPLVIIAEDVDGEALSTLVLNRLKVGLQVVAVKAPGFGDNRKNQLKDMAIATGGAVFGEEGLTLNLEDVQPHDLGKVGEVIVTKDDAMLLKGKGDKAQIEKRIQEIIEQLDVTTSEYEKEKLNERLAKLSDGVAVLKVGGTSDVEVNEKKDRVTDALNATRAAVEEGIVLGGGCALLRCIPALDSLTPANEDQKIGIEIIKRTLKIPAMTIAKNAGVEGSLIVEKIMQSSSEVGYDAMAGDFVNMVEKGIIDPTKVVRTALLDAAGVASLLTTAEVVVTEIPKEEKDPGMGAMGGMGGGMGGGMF
Cytoskeleton-associated protein 4 (Homo sapiens), sequence (Q07065 whole entry): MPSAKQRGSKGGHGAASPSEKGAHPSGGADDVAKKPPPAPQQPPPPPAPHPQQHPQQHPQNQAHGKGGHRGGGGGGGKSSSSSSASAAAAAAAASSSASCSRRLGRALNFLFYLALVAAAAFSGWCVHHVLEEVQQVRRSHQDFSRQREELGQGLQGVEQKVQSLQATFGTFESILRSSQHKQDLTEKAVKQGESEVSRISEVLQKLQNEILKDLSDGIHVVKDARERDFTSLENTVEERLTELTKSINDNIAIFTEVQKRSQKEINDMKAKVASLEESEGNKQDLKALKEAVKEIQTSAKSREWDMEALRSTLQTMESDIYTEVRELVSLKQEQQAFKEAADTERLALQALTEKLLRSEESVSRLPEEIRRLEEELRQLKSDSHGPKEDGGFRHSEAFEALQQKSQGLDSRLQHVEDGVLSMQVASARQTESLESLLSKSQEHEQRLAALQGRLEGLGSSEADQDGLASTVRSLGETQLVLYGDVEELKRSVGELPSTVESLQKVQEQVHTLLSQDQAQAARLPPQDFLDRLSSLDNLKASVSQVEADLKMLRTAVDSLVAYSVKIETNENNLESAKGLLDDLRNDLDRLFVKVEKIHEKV
Alpha-actinin-4 (Homo sapiens), sequence (O43707 whole entry): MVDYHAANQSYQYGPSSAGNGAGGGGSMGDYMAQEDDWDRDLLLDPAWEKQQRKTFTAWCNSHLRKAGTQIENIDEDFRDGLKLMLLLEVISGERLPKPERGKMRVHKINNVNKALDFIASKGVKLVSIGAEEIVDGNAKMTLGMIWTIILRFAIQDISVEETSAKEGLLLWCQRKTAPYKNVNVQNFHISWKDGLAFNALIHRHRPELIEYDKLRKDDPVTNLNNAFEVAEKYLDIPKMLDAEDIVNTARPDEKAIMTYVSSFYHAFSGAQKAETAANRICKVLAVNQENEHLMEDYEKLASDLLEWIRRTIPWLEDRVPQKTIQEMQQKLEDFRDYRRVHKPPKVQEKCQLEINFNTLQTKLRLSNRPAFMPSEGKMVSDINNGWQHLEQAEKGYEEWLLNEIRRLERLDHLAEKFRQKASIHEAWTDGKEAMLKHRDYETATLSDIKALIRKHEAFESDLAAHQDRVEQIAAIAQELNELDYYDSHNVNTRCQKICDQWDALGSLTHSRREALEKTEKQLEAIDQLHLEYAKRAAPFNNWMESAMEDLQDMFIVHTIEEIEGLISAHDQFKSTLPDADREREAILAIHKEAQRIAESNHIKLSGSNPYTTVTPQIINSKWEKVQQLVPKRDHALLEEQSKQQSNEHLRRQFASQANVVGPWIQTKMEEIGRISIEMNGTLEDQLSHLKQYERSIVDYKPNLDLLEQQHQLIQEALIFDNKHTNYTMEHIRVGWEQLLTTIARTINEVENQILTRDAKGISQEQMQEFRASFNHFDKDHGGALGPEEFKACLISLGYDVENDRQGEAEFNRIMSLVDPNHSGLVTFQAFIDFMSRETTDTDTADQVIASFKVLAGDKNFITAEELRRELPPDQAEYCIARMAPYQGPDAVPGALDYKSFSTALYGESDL
Ras GTPase-activating protein-binding protein 1 (Homo sapiens), sequence (Q13283 2-466 limits assumed): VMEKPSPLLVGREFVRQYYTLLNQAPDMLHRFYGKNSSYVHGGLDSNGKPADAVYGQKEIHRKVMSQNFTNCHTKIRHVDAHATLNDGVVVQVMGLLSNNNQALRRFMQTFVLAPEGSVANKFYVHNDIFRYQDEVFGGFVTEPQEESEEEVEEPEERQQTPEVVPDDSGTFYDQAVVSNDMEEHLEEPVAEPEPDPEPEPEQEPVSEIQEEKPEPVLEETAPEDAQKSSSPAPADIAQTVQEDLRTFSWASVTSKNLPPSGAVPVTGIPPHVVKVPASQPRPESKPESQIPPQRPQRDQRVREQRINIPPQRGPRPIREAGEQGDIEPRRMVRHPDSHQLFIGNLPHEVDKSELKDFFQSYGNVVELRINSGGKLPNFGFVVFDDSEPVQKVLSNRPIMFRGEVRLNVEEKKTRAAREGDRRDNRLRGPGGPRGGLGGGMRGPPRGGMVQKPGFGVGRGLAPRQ
S-adenosylhomocysteine hydrolase-like protein 1 (Homo sapiens), sequence (O43865 2-530 limits assumed): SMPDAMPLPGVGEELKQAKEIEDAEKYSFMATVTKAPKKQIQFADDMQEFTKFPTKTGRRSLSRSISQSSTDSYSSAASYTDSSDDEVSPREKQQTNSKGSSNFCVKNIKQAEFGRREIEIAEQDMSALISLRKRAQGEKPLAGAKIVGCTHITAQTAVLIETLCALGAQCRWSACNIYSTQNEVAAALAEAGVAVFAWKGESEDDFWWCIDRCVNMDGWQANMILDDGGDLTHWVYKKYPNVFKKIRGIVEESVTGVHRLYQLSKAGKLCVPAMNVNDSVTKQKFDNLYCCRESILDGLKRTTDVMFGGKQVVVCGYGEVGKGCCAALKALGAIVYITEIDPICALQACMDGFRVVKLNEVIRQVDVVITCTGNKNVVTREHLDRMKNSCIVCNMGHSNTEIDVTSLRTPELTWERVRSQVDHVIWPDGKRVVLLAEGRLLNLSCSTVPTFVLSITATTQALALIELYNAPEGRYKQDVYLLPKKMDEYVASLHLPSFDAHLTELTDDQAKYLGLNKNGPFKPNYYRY

i3XFLAG-NLS-CTDaa154-424
PSMs [1]: 14 PSMs | PSMs [2]: 2 PSMs | PSMs [3]: 2 PSMs | PSMs [4]: 7 PSMs | PSMs [5]: 5 PSMs | PSMs [6]: 2 PSMs | PSMs [7]: 11 PSMs | PSMs [8]: 34 PSMs | PSMs [9]: 5 PSMs | PSMs [10]: 3 PSMs | PSMs [11]: 11 PSMs | PSMs [12]: 62 PSMs | PSMs [13]: 14 PSMs | PSMs [14]: 21 PSMs | PSMs [15]: 6 PSMs | PSMs [16]: 48 PSMs | PSMs (Filamin-C (Homo sapiens)): 7 PSMs | PSMs [17]: 10 PSMs | PSMs [18]: 54 PSMs | PSMs [19]: 10 PSMs | PSMs [20]: 9 PSMs | PSMs [21]: 5 PSMs | PSMs [22]: 3 PSMs | PSMs [23]: 2 PSMs | PSMs [24]: 3 PSMs | PSMs [25]: 2 PSMs | PSMs [26]: 2 PSMs | PSMs [27]: 11 PSMs | PSMs (Serpin B3 (Homo sapiens)): 2 PSMs | PSMs [28]: 3 PSMs | PSMs [29]: 3 PSMs | PSMs [30]: 39 PSMs | PSMs [31]: 61 PSMs | PSMs [32]: 6 PSMs | PSMs [33]: 5 PSMs | PSMs [34]: 3 PSMs
